# Results as given in paper PMC2822728 (Neuron, 2010).
# B1: HA-SynDIG1 (full-length mouse SynDIG1, N-terminal HA tag) (natural protein, UniProt A2ANU3 1-258, looked up)
# chain: MDGIIEQKSVLVHSKISDAGKRNGLINTRNFMAESRDGLVSVYPAPQYQSHRLVASAAPGSLEGGRSEPVQQLLDPNTLQQSVESHYRPNIILYSDGVLRSWGDGVATDCCETTFIEDRSPTKDSLEYPDGKFIDLSGDDIKIHTLSYDVEEEEELQELESDYSSDTESEDNFLMMPPRDHLGLSVFSMLCCFWPLGIAAFYLSHETNKAVAKGDFHQASTSSRRALFLAVLSITIGTGIYVGVAVALIAYLSKNNHL
# Target: the molecule itself
# Test: SDS-resistant dimers on SDS-PAGE
protein,measurement,value
B1,stoichiometry N,2
